This passage reports Km, kcat and kcat/Km results from patent publication US8119364B2, “Methods for generating analogs of coenzyme A” (The Regents of the University of California, priority 2005, dated 2012).

Substrate in this series: CC(C)(CO)[C@@H](O)C(=O)NCCC(=O)O
Kind of series: Kinetic assay of pantetheine analogs as substrates of PanK. In kind it is biochemical. To be noted: other: compound as substrate of E. coli PanK. The method, then: As mentioned earlier, phosphorylation of the primary hydroxyl group of pantothenate by the first protein in the CoA biosynthesis pathway, PanK, is believed to be the rate limiting step in vivo. Jackowski and Rock, J. Bacteria 148:926, 1981. Due to its role as the gatekeeper of CoA biosynthesis, each of the new analogs was assayed for kinetic activity with PanK (Table 2).
The assay was performed as previously described using the prototypical bacterial PanK, CoAA from E. coli. Kumar and Aldrich, Org. Lett. 5:613, 2003. The reaction of CoAA with the natural substrate pantothenate gave values that conformed to those previously reported in the literature. Worthington and Burkart, Org. Biomol. Chem. 4:44, 2005; Strauss and Begley, J. Biol. Chem. 277:48205, 2002. […] Conversely, compounds with PEG linkers between the pantoic acid moiety and the bioorthogonal terminus were poor substrates for CoAA.

B1: E. coli PanK (CoAA) (Escherichia coli K-12) (protein)
chain: MSIKEQTLMTPYLQFDRNQWAALRDSVPMTLSEDEIARLKGINEDLSLEEVAEIYLPLSRLLNFYISSNLRRQAVLEQFLGTNGQRIPYIISIAGSVAVGKSTTARVLQALLSRWPEHRRVELITTDGFLHPNQVLKERGLMKKKGFPESYDMHRLVKFVSDLKSGVPNVTAPVYSHLIYDVIPDGDKTVVQPDILILEGLNVLQSGMDYPHDPHHVFVSDFVDFSIYVDAPEDLLQTWYINRFLKFREGAFTDPDSYFHNYAKLTKEEAIKTAMTLWKEINWLNLKQNILPTRERASLILTKSANHAVEEVRLRK
Consider B1, for which the Michaelis constant (Km) is 28.56 ± 1.77 µM, the kcat is 0.521 ± 0.00967 s⁻¹ and the kcat/Km is 18200 ± 680 M⁻¹ s⁻¹.
